22 substances from US12016910B2, “Antigenic peptides for prevention and treatment of cancer” (ENTEROME S.A., priority 2018, dated 2024) can be followed below.

The target in assay [1] is T1, HLA-A*0201 (Homo sapiens, UniProt P04439, D140Y/D185E/D98H/E176V/E277Q/G131W/G231S/I119V/I121R/I166T/I218V/L300P/L318F/N151K/N90K/P208A/P217A/Q86G/Q94H/R138H/R169H/T345S).
T1 construct: the human tumoral cell T2 which expresses the HLA-A*0201 molecule; endogenous in cells; host or cells: T2 cells (human, TAP1/2 negative)
As to the kind of experiment: Affinity of the peptide to T2 cell line: HLA-A2 labelling by FACS, relative to HIV pol 589-597. It is filed as binding. To be noted: for binding affinity to HLA-A*0201 compared with the other peptides tested (in words): Examples 2, 7, 8, 9; for binding to HLA-A*0201 as % of maximum HIV pol 589-597 binding activity: Example 8. From the text:
The experimental protocol is similar to the one that was validated for peptides presented by the HLA-A*0201 (Tourdot et al., A general strategy to enhance immunogenicity of low-affinity HLA-A2.1-associated peptides: implication in the identification of cryptic tumor epitopes. Eur J Immunol. 2000 December; 30(12):3411-21). Affinity measurement of the peptides is achieved with the human tumoral cell T2 which expresses the HLA-A*0201 molecule, but which is TAP1/2 negative and incapable of presenting endogenous peptides.
T2 cells (2.10^5 cells per well) are incubated with decreasing concentrations of peptides from 100 μM to 1.5625 μM in a AIMV medium supplemented with 100 ng/μl of human β2m at 37° C. for 16 hours. Cells are then washed two times and marked with the anti-HLA-A2 antibody coupled to PE (clone BB7.2, BD Pharmagen).
The analysis is achieved by FACS (Guava Easy Cyte).
A2. Solubilisation of Peptides
Each peptide is solubilized by taking into account the amino acid composition. […] Other peptides are resuspended in water or PBS pH7.4.
The experimental protocol, materials and methods correspond to those outlined in Example 2, with the only difference that the above mentioned (poly)peptides were used.
Background: In flow cytometry, cells or beads pass a laser one at a time.

Assay [2] deals with T cell responses (IFNγ-producing splenocytes). Put plainly: ELISPOT-IFNγ assay on splenocytes of vaccinated HLA-A2 humanized mice. Type of assay: in vivo, HLA-A2 (CB6F1-Tg(HLA-A*0201/H2-Kb)A*0201) mice. The note with it: 100 μg vacc-pAg + 150 μg T13L + IFA s.c. d0 and d14; splenocytes d21 restimulated with vacc-pAg 10 μM. From the text: Briefly, HLA-A2 humanized mice (HLA-A2 (CB6F1-Tg(HLA-A*0201/H2-Kb)A*0201) were assigned randomly (based on mouse sex and age) to experimental groups, wherein each group was immunized with a specific vaccination peptide (vacc-pAg) combined to a common helper peptide (h-pAg T13L; sequence: […]; SEQ ID NO: 860; Bhasin M, Singh H, Raghava GP (2003) MHCBN: a comprehensive database of MHC binding and non-binding peptides. Bioinformatics 19: 665-666) (as outlined in Table 5 below). The vacc-pAg were compared in couples (group 1 vs. group 2, group 1 vs. group 3; group 1 vs. group 4; group 5 vs. group 6; group 7 vs. group 8; group 9 vs. group 10). Thereby, both native and optimized versions of a single peptide were compared in each wave.
The peptides were provided as follows: • vacc-pAg: BIRC5-H, BIRC5-B1, BIRC5-B2, BIRC5-B3, FOXM1-H2, FOXM1-B2, EZH2-H2, EZH2-B2, 1L13RA2-H and IL13RA2-B; all produced and provided at a 4 mg/ml (4 mM) concentration; • h-pAg: T13L; Eurogentec batch 1713334 re-suspended in pure distilled water at a 10 mg/mL concentration
The animals were immunized on day 0 (d0) with a prime injection, and on d14 with a boost injection. Each mouse was injected s.c. at tail base with 100 μL of an oil-based emulsion that contained: • 100 μg of vacc-pAg (25 μL of 4 mg/mL stock per mouse); • 150 μg of h-pAg (15 μL of 10 mg/mL stock per mouse); • 10 μL of PBS to reach a total volume of 50 μL (per mouse); • Incomplete Freund's Adjuvant (IFA) added at 1:1 (v:v) ratio (50 μL per mouse).
A separate emulsion was prepared for each vacc-pAg, as follows: IFA reagent was added to the vacc-pAg/h-pAg/PBS mixture in a 15 mL tube and mixed on vortex for repeated cycles of 1 min until forming a thick emulsion.
Seven days after the boost injection (i.e. on d21), the animals were euthanized and the spleen was harvested. Splenocytes were prepared by mechanical disruption of the organ followed by 70 μm-filtering and Ficoll density gradient purification.
The splenocytes were immediately used in an ELISPOT-IFNγ assay (Table 6). Experimental conditions were repeated in triplicates, using 2*10^5 total splenocytes per well, and were cultured in presence of vacc-pAg (10 μM), lonomycin (0.1 μM) plus PMA (1 μM) or medium-only to assess for their capacity to secrete IFNγ. The commercial ELISPOT-IFNγ kit (Diaclone Kit Mujrine IFNγ ELISpot) was used following the manufacturer's instructions, and the assay was performed after about 19 h of incubation.
Spots were counted on a CTL ELISpot reader. Data plotting and statistical analysis were performed with the Prism-5 software (GraphPad Software Inc.).
The data were then normalized as a number of specific spots (the average counts obtained in the ‘medium only’ condition being subtracted) per 50*10^3 total T cells.
The individual average values (obtained from the triplicates) were next used to plot the group average values. As the functional capacity of T cells might vary from individual to individual, the data were also expressed as the percentage of the ionomycin plus PMA response per individual (see FIG. 8).

For assay [3], the system named is T-cells (IFN-secreting splenocytes). As to the kind of experiment: Immunogenicity and cross-reactivity, confirmation in HHD DR1 mice. Type of assay: in vivo. To be noted: HHD DR3 and HHD DR1 mice, summary of Examples 4 to 6.
Assay [4] has the same test system. Put plainly: Immunogenicity and cross-reactivity, IFN ELISpot on splenocytes of immunized HHD DR3 mice. Type of assay: in vivo. The note with it: for immunogenicity: immune response after challenge with the vaccination peptide or the human corresponding peptide (IFN ELISpot): 100 μg peptide + 150 μg helper peptide (DR3) + IFA s.c. days 0 and 14, splenocytes day 21. As for the experimental part:
Concanavalin A (ConA) was used as a positive control.
The antigenic peptide of the invention BIRC5-B1 (SEQ ID NO: 32) and the corresponding human peptide BIRC5-H (SEQ ID NO: 593) were tested in distinct groups of male and female HHD DR3 mice expressing human HLA-A2 and HLA-DR3 MHC and lacking the murine H-2 class I and class II MHCs. Groups of 5 mice (male and female) were subcutaneously injected on days 0 and 14 with 100 μg of BIRC5-B1 or BIRC5-H, 150 μg of helper peptide (DR3) and IFA. On day 21, the mice were euthanized and splenocytes were prepared and stimulated in vitro with BIRC5-B1 or the human peptide BIRC5-H to assess their capacity to secrete IFN—as assessed by ELISpot. ConA was used as a positive control.
The antigenic peptide of the invention FOXM1-B2 (SEQ ID NO: 220) and the corresponding human peptide FOXM1-H2 (SEQ ID NO: 674) were tested in distinct groups of male and female HHD DR3 mice expressing human HLA-A2 and HLA-DR3 MHC and lacking the murine H-2 class I and class II MHCs. Groups of 5 mice (male and female) were subcutaneously injected on days 0 and 14 with 100 μg of FOXM1-B2 or FOXM1-H2, 150 μg of helper peptide (DR3) and IFA. On day 21, the mice were euthanized and splenocytes were prepared and stimulated in vitro with FOXM1-B2 or the human corresponding peptide FOXM1-H2 to assess their capacity to secrete IFN—as assessed by ELISpot. ConA was used as a positive control

Consider “1A9V: comparative peptide (Eguchi et al., 2006): SEQ ID NO: 691 with tryptophan 1 substituted by alanine, isoleucine 9 by valine (ALPFGFILV; comparative peptide) [reference compound]”, for which the “Concentration of peptide that induces 20% of HLA-A2 expression” value in assay [1] (Example 8, Table 8) is 36.5 µM. In addition, in assay [1], the “binding affinity to HLA-A*0201 compared with the other peptides tested (in words)” value is reported as “lowest affinity of the peptides tested”.

With AVFRVLIPV [EZH2-B2], the “Concentration of peptide that induces 20% of HLA-A2 expression” value in assay [1] (Example 2, Table 4) is 8.3 µM. Moreover, the “T cell responses in the ELISPOT-IFNγ assay compared to the respective human reference epitope” value in assay [2] is reported as “improved T cell responses”.

For the substance FLDSLGFSL [TYMS B2], in assay [1] (Example 2, Table 4), the “Concentration of peptide that induces 20% of HLA-A2 expression” value stood at 2.7 µM.

For the substance “FLDSLGFST (listed as Homo sapiens) [TYMS H2, reference compound]”, the “Concentration of peptide that induces 20% of HLA-A2 expression” value in assay [1] (Example 2, Table 4) stood at 9.5 µM.

FLPFGFILPV [IL13RA2-L]: the immune responses induced result in assay [3] was “induced strong immune responses”. The “immunogenicity: immune response after challenge with the vaccination peptide or the human corresponding peptide (IFN ELISpot)” value (shortened to “immunogenicity: immune response”) in assay [4] is on record as “strongly immunogenic”. Also, the “immune response against the corresponding human peptide (cross-reactivity)” value in assay [4] (same immunisation) is on record as “able to drive an effective immune response against the corresponding human peptide”. The “Concentration of peptide that induces 20% of HLA-A2 expression” value was found to be 3.2 µM in assay [1] (Example 2, Table 4) and 3.2 µM in assay [1] (Example 8, Table 8). In assay [1], the “binding affinity to HLA-A*0201 compared with the other peptides tested (in words)” value was “considerably higher binding affinity”. The “binding to HLA-A*0201 as % of maximum HIV pol 589-597 binding activity” value turned out to be 43% in assay [1] (at 6.25 μM), 96% in assay [1] (at 25 μM) and 69% in assay [1] (at 100 μM).

In the case of FLPFGFILV [IL13RA2-B], the “Concentration of peptide that induces 20% of HLA-A2 expression” value in assay [1] (Example 2, Table 4) came out at 2.9 µM; in assay [1] (Example 8, Table 8), 2.9 µM. The “binding affinity to HLA-A*0201 compared with the other peptides tested (in words)” value in assay [1] is on record as “considerably higher binding affinity”. Further, in assay [2], the “T cell responses in the ELISPOT-IFNγ assay compared to the respective human reference epitope” value is on record as “improved T cell responses”.

For the substance FLVEDETVI [EZH2-B], in assay [1] (Example 2, Table 4), the “Concentration of peptide that induces 20% of HLA-A2 expression” value is 8.8 µM.

With “FMVEDETVL (listed as Homo sapiens) [EZH2-H, reference compound]”, the “Concentration of peptide that induces 20% of HLA-A2 expression” value in assay [1] (Example 2, Table 4) was 13.3 µM.

With GLLGEFLQI [BIRC5-B3], the “Concentration of peptide that induces 20% of HLA-A2 expression” value in assay [1] (Example 2, Table 4) turned out to be 22.9 µM. In addition, the “T cell responses in the ELISPOT-IFNγ assay compared to the respective human reference epitope” value in assay [2] is recorded as “improved T cell responses”.

Take ILDEAYVRV [EGFR-B]: the “Concentration of peptide that induces 20% of HLA-A2 expression” value in assay [1] (Example 2, Table 4) turned out to be 3.1 µM.

Consider LLLSAALSV [CHI3L1 B], for which, in assay [1] (Example 2, Table 4), the “Concentration of peptide that induces 20% of HLA-A2 expression” value worked out at 3.6 µM.

On to “LMDLSTTPL (listed as Homo sapiens) [FOXM1-H2, reference compound]”, for which the “immunogenicity: immune response” value in assay [4] is listed as “does not induce immune response”. Moreover, in assay [1] (Example 2, Table 4), the “Concentration of peptide that induces 20% of HLA-A2 expression” value came to 12.6 µM.

In the case of LMLGEFLKL [2M, reference compound], in assay [1] (Example 9, Table 9), the “Concentration of peptide that induces 20% of HLA-A2 expression” value was 2.87 µM.

Turning to “LTLGEFLKL (listed as Homo sapiens) [BIRC5-H, reference compound]”, the “immunogenicity: immune response” value in assay [4] is recorded as “does not induce any immune response”. Moreover, the “Concentration of peptide that induces 20% of HLA-A2 expression” value came out at 53.0 µM in assay [1] (Example 2, Table 4) and 95.9 µM in assay [1] (Example 9, Table 9).

As to RLSSYLVEI [FOXM1-B], the “Concentration of peptide that induces 20% of HLA-A2 expression” value in assay [1] (Example 2, Table 4) is 46.7 µM.

Turning to “RVSSYLVPI (listed as Homo sapiens) [FOXM1-H, reference compound]”, in assay [1] (Example 2, Table 4), the “Concentration of peptide that induces 20% of HLA-A2 expression” value amounted to 37.6 µM.

In the case of SMEELLWFV [TYMS B], in assay [1] (Example 2, Table 4), the “Concentration of peptide that induces 20% of HLA-A2 expression” value came to 1.1 µM.

As for “SMFRVLIGT (listed as Homo sapiens) [EZH2-H2, reference compound]”, the “Concentration of peptide that induces 20% of HLA-A2 expression” value in assay [1] (Example 2, Table 4) was 39.2 µM.

“VLEELLWFI (listed as Homo sapiens) [TYMS H, reference compound]”: the “Concentration of peptide that induces 20% of HLA-A2 expression” value in assay [1] (Example 2, Table 4) was 4.1 µM.

Consider “WLPFGFILI (listed as Homo sapiens) [IL13RA2-H, reference compound]”, for which, in assay [4], the “immunogenicity: immune response” value was “does not induce an immune response”.

On to YLLSAALTI [CHI3L1 B3], for which, in assay [1] (Example 2, Table 4), the “Concentration of peptide that induces 20% of HLA-A2 expression” value was 8.6 µM.

As for YTLGEFLYI [BIRC5-B2], the “Concentration of peptide that induces 20% of HLA-A2 expression” value in assay [1] (Example 2, Table 4) turned out to be 14.7 µM. In addition, in assay [2], the “T cell responses in the ELISPOT-IFNγ assay compared to the respective human reference epitope” value is “improved T cell responses”.
